Measured values: PMC7736850, “Hemistepsin A suppresses colorectal cancer growth through inhibiting pyruvate dehydrogenase kinase activity” (Scientific Reports, 2020)

What was measured:
[1] = molecular target: Pyruvate dehydrogenase kinase 1 (PDK1) protein (UniProt Q15118); assay: ITC; PDK1 protein with the lipoamide-binding domains of PDH-E2 (L1, L2), without HsA; conditions not told in the main text
[2] = molecular target: Pyruvate dehydrogenase kinase 1 (PDK1) protein (UniProt Q15118); assay: ITC; PDK1 protein with the lipoamide-binding domains of PDH-E2 (L1, L2), in the presence of hemistepsin A (HsA); conditions not told in the main text
[3] = molecular target: T1, pyruvate dehydrogenase kinase (PDK) 1 (Homo sapiens, UniProt Q15118); assay: isothermal titration calorimetry (ITC); assay type: binding
T1 construct: gene PDK1
T1 sequence (Q15118 29-436): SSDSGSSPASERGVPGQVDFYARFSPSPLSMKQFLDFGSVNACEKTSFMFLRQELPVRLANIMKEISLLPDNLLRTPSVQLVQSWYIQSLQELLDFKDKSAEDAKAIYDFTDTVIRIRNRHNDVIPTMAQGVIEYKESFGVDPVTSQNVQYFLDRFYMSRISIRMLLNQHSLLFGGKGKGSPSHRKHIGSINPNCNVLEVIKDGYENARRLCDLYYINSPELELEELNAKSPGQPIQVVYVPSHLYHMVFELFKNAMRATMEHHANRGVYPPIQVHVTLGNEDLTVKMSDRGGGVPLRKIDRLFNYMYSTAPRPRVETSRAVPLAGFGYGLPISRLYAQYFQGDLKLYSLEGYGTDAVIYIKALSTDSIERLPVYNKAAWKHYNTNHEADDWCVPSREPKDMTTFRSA

Pyruvate dehydrogenase kinase 1 (PDK1) protein, sequence (Q15118 29-436): as above

Compound	Kd [1] [µM]	Kd [2] [µM]	Kd [3] [µM]
L2 lipoamide-binding domain of the PDH complex E2 subunit (PDH-E2) (domain or fragment)	30	41	
L1 lipoamide-binding domain of the PDH complex E2 subunit (PDH-E2) (domain or fragment)	41.1	43.1	
C=C(CO)C(=O)OC1C2C(=C)C(=O)OC2CC(=C)C2CC(O)C(=C)C21 (centres unmarked) [HsA, Hemistepsin A]			22
